Laboratory results from IntAct's records for PubMed 16424905.

B1: AN1-type zinc finger protein 5 (Homo sapiens), O76080 (parent)
chain: MAQETNQTPGPMLCSTGCGFYGNPRTNGMCSVCYKEHLQRQQNSGRMSPMGTASGSNSPTSDSASVQRADTSLNNCEGAAGSTSEKSRNVPVAALPVTQQMTEMSISREDKITTPKTEVSEPVVTQPSPSVSQPSTSQSEEKAPELPKPKKNRCFMCRKKVGLTGFDCRCGNLFCGLHRYSDKHNCPYDYKAEAAAKIRKENPVVVAEKIQRI

Variants of: B1
Details: with psmd6_human PSMD6, Q15008
Chain of psmd6_human PSMD6, Q15008 (Q15008 whole entry): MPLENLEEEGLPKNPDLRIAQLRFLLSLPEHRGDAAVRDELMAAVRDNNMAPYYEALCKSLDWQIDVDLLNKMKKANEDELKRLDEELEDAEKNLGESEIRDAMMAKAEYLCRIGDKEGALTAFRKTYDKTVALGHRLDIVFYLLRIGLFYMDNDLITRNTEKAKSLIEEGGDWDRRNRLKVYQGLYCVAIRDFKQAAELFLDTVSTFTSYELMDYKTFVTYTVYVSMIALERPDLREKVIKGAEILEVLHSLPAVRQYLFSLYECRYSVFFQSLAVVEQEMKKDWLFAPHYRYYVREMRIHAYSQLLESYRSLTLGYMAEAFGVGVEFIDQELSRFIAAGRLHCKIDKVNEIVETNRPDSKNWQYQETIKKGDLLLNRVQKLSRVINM

Effect of a mutation on the interaction, disrupting interaction:
C170A
C175A
C30A
C33A

Variants of: B1
Details: with ubc_human UBC

Effect of a mutation on the interaction, disrupting interaction:
C30A
C33A
